For test [1], the target named is T1, β-catenin (UniProt P35222 134-665, limits assumed, biotinylated in the SPR and plate assays).
T1 sequence (looked up): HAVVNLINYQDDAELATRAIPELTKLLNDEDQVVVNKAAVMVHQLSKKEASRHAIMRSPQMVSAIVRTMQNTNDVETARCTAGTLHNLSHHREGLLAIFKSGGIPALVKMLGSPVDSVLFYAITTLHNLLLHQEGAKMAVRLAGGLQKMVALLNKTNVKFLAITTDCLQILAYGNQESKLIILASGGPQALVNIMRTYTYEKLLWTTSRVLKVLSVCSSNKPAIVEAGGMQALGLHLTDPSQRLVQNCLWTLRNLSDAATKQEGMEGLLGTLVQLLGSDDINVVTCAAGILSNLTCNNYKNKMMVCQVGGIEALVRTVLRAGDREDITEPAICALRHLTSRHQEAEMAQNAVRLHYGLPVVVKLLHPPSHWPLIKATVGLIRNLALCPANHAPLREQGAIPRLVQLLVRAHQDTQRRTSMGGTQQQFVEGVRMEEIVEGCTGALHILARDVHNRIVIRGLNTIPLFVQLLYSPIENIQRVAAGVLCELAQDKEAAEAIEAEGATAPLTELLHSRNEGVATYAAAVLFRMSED
The test is described as follows: cell-based or functional assay.

For test [2], the target named is T1, β-catenin. The test is described as follows: competitive FP. An excerpt:
Fluorescence polarization (FP) is another method used to analyze protein-ligand interactions. This methodology measures the change in fluorescence light emitted by a labelled compound free vs. conjugated to another compound in solution. Upon binding of the fluorescent molecule to a complex, polarization increases because of limited rotation of the fluorescent tracer. Competitive FP is often utilized in drug screens as it is formatted for high throughput screens in a plate format. This immunoassay is performed by introducing a non-conjugated drug to compete for binding to the labelled competitor-ligand complex, leading to a reduction in polarization. […] Exemplary methodology is described in Example 13. Data were analyzed and plotted in Microsoft Excel (Microsoft, Redmond, WA).
Varying concentrations of β-catenin inhibitor candidate (SEQ ID NO: 404) were then added in a series of serial dilutions from 10 nM to 30 uM of inhibitor in different wells of the plate. The fluorescence polarization was read by Infinite M1000 (Tecan, Baldwin Park CA) at excitation wavelength of 470 nm and measured at emission wavelength of 520 nm. […] The experiments were performed three times and data were analyzed and plotted in Microsoft Excel (Microsoft, Redmond, WA).

Values joined by “and” are separate entries in the source; they are usually repeats but may differ in a detail not shown here. Equal values may be shown once. Bridges are numbered along the chain shown (N, C = ends). Where no end group is shown, it is not given here. [ ]: non-standard residue; d: D form. The star is where a group is joined. NMeW = CN[C@@H](Cc1c[nH]c2ccccc12)C(=O)O; Stearoyl = CCCCCCCCCCCCCCCCCC(=O)*; Chg = N[C@H](C(=O)O)C1CCCCC1; αMeV = CC(C)[C@](C)(N)C(=O)O; NMeA = CN[C@@H](C)C(=O)O

B1: SEQ ID NO: 36 (peptide)
peptide: WWESILDEHVQRVWG
HELM: PEPTIDE1{W.[meW].E.S.I.L.D.E.H.V.Q.R.V.W.G.[am]}$$$$V2.0
SMILES: CC[C@H](C)[C@H](NC(=O)[C@H](CO)NC(=O)[C@H](CCC(=O)O)NC(=O)[C@H](Cc1c[nH]c2ccccc12)N(C)C(=O)[C@@H](N)Cc1c[nH]c2ccccc12)C(=O)N[C@@H](CC(C)C)C(=O)N[C@@H](CC(=O)O)C(=O)N[C@@H](CCC(=O)O)C(=O)N[C@@H](Cc1c[nH]cn1)C(=O)N[C@H](C(=O)N[C@@H](CCC(N)=O)C(=O)N[C@@H](CCCNC(=N)N)C(=O)N[C@H](C(=O)N[C@@H](Cc1c[nH]c2ccccc12)C(=O)NCC(N)=O)C(C)C)C(C)C
Take B1: the “Wnt Reporter EC50” value in test [1] is more than 30000 nM. In test [2], this molecule yielded an equilibrium dissociation constant (Kd) not above 400 nM.
Regarding H-MWESILDEH[αMeV]QRVWG-NH2 [SEQ ID NO: 34], the “Wnt Reporter EC50” value in test [1] was more than 30000 nM. Besides, in test [2], the Kd was not above 400 nM.
For the molecule Stearoyl-GW[NMeW]ESILDEHVQRVWG-OH [SEQ ID NO: 2], the Kd in test [2] was not above 400 nM.
The same measure, in the same setting: the result for Ac-W[NMeA]QKILDEH[Chg]EDVWK-NH2 (lactam 11-15, 4-8 (inferred)) [SEQ ID NO: 464] reads > 400 nM and ≤ 1000 nM.

B2: SEQ ID NO: 455 (peptide)
peptide: WXQKILNDHGQRVW
HELM: PEPTIDE1{[ac].W.[Aib].Q.K.I.L.N.D.H.[O=C([C@@H](N[*:1])C1CCCCC1)[*:2]].Q.R.V.W.[am]}$PEPTIDE1,PEPTIDE1,5:R3-9:R3$$$V2.0
SMILES: CC[C@H](C)[C@@H]1NC(=O)[C@@H](NC(=O)[C@H](CCC(N)=O)NC(=O)C(C)(C)NC(=O)[C@H](Cc2c[nH]c3ccccc23)NC(C)=O)CCCCNC(=O)C[C@@H](C(=O)N[C@@H](Cc2c[nH]cn2)C(=O)N[C@H](C(=O)N[C@@H](CCC(N)=O)C(=O)N[C@@H](CCCNC(=N)N)C(=O)N[C@H](C(=O)N[C@@H](Cc2c[nH]c3ccccc23)C(N)=O)C(C)C)C2CCCCC2)NC(=O)[C@H](CC(N)=O)NC(=O)[C@H](CC(C)C)NC1=O
Molecule B2 returned a Kd in test [2] not above 400 nM.

B3: SEQ ID NO: 433 (peptide)
peptide: AQKILNEHGQRVWG
HELM: PEPTIDE1{[ac].[meA].Q.K.I.L.N.E.H.[O=C([C@@H](N[*:1])C1CCCCC1)[*:2]].Q.R.V.W.G.[am]}$PEPTIDE1,PEPTIDE1,4:R3-8:R3$$$V2.0
SMILES: CC[C@H](C)[C@@H]1NC(=O)[C@@H](NC(=O)[C@H](CCC(N)=O)NC(=O)[C@H](C)N(C)C(C)=O)CCCCNC(=O)CC[C@@H](C(=O)N[C@@H](Cc2c[nH]cn2)C(=O)N[C@H](C(=O)N[C@@H](CCC(N)=O)C(=O)N[C@@H](CCCNC(=N)N)C(=O)N[C@H](C(=O)N[C@@H](Cc2c[nH]c3ccccc23)C(=O)NCC(N)=O)C(C)C)C2CCCCC2)NC(=O)[C@H](CC(N)=O)NC(=O)[C@H](CC(C)C)NC1=O
On to B3, for which the Kd in test [2] was > 400 nM and ≤ 1000 nM.

B4: SEQ ID NO: 446 (peptide)
peptide: WAQKILDEHGQRVW
HELM: PEPTIDE1{[ac].W.[meA].Q.K.I.L.D.E.H.[O=C([C@@H](N[*:1])C1CCCCC1)[*:2]].Q.R.V.W.[am]}$PEPTIDE1,PEPTIDE1,5:R3-9:R3$$$V2.0
SMILES: CC[C@H](C)[C@@H]1NC(=O)[C@@H](NC(=O)[C@H](CCC(N)=O)NC(=O)[C@H](C)N(C)C(=O)[C@H](Cc2c[nH]c3ccccc23)NC(C)=O)CCCCNC(=O)CC[C@@H](C(=O)N[C@@H](Cc2c[nH]cn2)C(=O)N[C@H](C(=O)N[C@@H](CCC(N)=O)C(=O)N[C@@H](CCCNC(=N)N)C(=O)N[C@H](C(=O)N[C@@H](Cc2c[nH]c3ccccc23)C(N)=O)C(C)C)C2CCCCC2)NC(=O)[C@H](CC(=O)O)NC(=O)[C@H](CC(C)C)NC1=O
Consider B4, for which the dissociation constant Kd in test [2] was not above 400 nM.
For the molecule Ac-W[NMeA]QKILNDH[Chg]QAVW-NH2 (lactam 4-8) [SEQ ID NO: 458], the Kd in test [2] was > 400 nM and ≤ 1000 nM.

B5: SEQ ID NO: 426 (peptide)
peptide: WAQEILDKHGQRVWG
HELM: PEPTIDE1{[ac].W.[meA].Q.E.I.L.D.K.H.[O=C([C@@H](N[*:1])C1CCCCC1)[*:2]].Q.R.V.W.G.[am]}$PEPTIDE1,PEPTIDE1,5:R3-9:R3$$$V2.0
SMILES: CC[C@H](C)[C@@H]1NC(=O)[C@@H](NC(=O)[C@H](CCC(N)=O)NC(=O)[C@H](C)N(C)C(=O)[C@H](Cc2c[nH]c3ccccc23)NC(C)=O)CCC(=O)NCCCC[C@@H](C(=O)N[C@@H](Cc2c[nH]cn2)C(=O)N[C@H](C(=O)N[C@@H](CCC(N)=O)C(=O)N[C@@H](CCCNC(=N)N)C(=O)N[C@H](C(=O)N[C@@H](Cc2c[nH]c3ccccc23)C(=O)NCC(N)=O)C(C)C)C2CCCCC2)NC(=O)[C@H](CC(=O)O)NC(=O)[C@H](CC(C)C)NC1=O
On to B5, for which, in test [2], the equilibrium dissociation constant (Kd) is not above 400 nM.

B6: SEQ ID NO: 102 (peptide)
peptide: WFLISFW
HELM: PEPTIDE1{[meW].F.L.I.S.F.W.[am]}$$$$V2.0
SMILES: CC[C@H](C)[C@H](NC(=O)[C@H](CC(C)C)NC(=O)[C@H](Cc1ccccc1)NC(=O)[C@H](Cc1c[nH]c2ccccc12)NC)C(=O)N[C@@H](CO)C(=O)N[C@@H](Cc1ccccc1)C(=O)N[C@@H](Cc1c[nH]c2ccccc12)C(N)=O
B6: the “Wnt Reporter EC50” value in test [1] was > 15000 nM and ≤ 22500 nM. In test [2], this molecule showed a Kd not above 400 nM.
For MMVQSLFVPPVK (not fully specified; cyclo-glutaryl-*MM-NMeNva-QSLF-NMeNva-PP-NMeNva-K*-CONH2) [SEQ ID NO: 3], in test [2], the Kd was > 10000 nM and ≤ 30000 nM.

B7: SEQ ID NO: 427 (peptide)
peptide: W[NMeA]QEILDKH[Chg]QRVWG-NH2
modifications: lactam 4-8; not fully specified (N-terminus); printed as H17C8C(O)NH-W-NMeA-QE*ILDK*H-Chg-QRVWG-NH2
As to B7, the Kd in test [2] is not above 400 nM.

B8: SEQ ID NO: 429 (peptide)
peptide: RRWPQKILDEHVRRVWR
HELM: PEPTIDE1{[ac].R.R.W.P.Q.K.I.L.D.E.H.V.R.R.V.W.R.[am]}$PEPTIDE1,PEPTIDE1,7:R3-11:R3$$$V2.0
SMILES: CC[C@H](C)[C@@H]1NC(=O)[C@@H](NC(=O)[C@H](CCC(N)=O)NC(=O)[C@@H]2CCCN2C(=O)[C@H](Cc2c[nH]c3ccccc23)NC(=O)[C@H](CCCNC(=N)N)NC(=O)[C@H](CCCNC(=N)N)NC(C)=O)CCCCNC(=O)CC[C@@H](C(=O)N[C@@H](Cc2c[nH]cn2)C(=O)N[C@H](C(=O)N[C@@H](CCCNC(=N)N)C(=O)N[C@@H](CCCNC(=N)N)C(=O)N[C@H](C(=O)N[C@@H](Cc2c[nH]c3ccccc23)C(=O)N[C@@H](CCCNC(=N)N)C(N)=O)C(C)C)C(C)C)NC(=O)[C@H](CC(=O)O)NC(=O)[C@H](CC(C)C)NC1=O
With B8, the Kd in test [2] is > 400 nM and ≤ 1000 nM.

B9: SEQ ID NO: 434 (peptide)
peptide: [NMeA]QKILNEH[Chg]QRVWG-NH2
modifications: lactam 3-7; not fully specified (N-terminus); printed as H23C11C(O)NH-NMeA-QK*ILNE*H-Chg-QRVWG-NH2
In test [2], B9 showed a Kd not above 400 nM.

B10: SEQ ID NO: 450 (peptide)
peptide: WAESILKEHVQRVWG
HELM: PEPTIDE1{[ac].W.[meA].E.S.I.L.K.E.H.V.Q.R.V.W.G.[am]}$PEPTIDE1,PEPTIDE1,4:R3-8:R3$$$V2.0
SMILES: CC[C@H](C)[C@@H]1NC(=O)[C@H](CO)NC(=O)[C@@H](NC(=O)[C@H](C)N(C)C(=O)[C@H](Cc2c[nH]c3ccccc23)NC(C)=O)CCC(=O)NCCCC[C@@H](C(=O)N[C@@H](CCC(=O)O)C(=O)N[C@@H](Cc2c[nH]cn2)C(=O)N[C@H](C(=O)N[C@@H](CCC(N)=O)C(=O)N[C@@H](CCCNC(=N)N)C(=O)N[C@H](C(=O)N[C@@H](Cc2c[nH]c3ccccc23)C(=O)NCC(N)=O)C(C)C)C(C)C)NC(=O)[C@H](CC(C)C)NC1=O
On to B10, for which the Kd in test [2] is > 400 nM and ≤ 1000 nM.
H-MWFLISSW-OH [SEQ ID NO: 96]: in test [1], the “Wnt Reporter EC50” value is > 7500 nM and ≤ 15000 nM. Also, the equilibrium dissociation constant (Kd) in test [2] is > 10000 nM and ≤ 30000 nM.

B11: SEQ ID NO: 197 (peptide)
peptide: MWFLICFW
HELM: PEPTIDE1{[ac].M.W.F.L.I.C.F.W.[O=C(O)CCCN[*:1]]}$$$$V2.0
SMILES: CC[C@H](C)[C@H](NC(=O)[C@H](CC(C)C)NC(=O)[C@H](Cc1ccccc1)NC(=O)[C@H](Cc1c[nH]c2ccccc12)NC(=O)[C@H](CCSC)NC(C)=O)C(=O)N[C@@H](CS)C(=O)N[C@@H](Cc1ccccc1)C(=O)N[C@@H](Cc1c[nH]c2ccccc12)C(=O)NCCCC(=O)O
B11: the “Wnt Reporter EC50” value in test [1] is not above 7500 nM. For the same molecule, the dissociation constant Kd in test [2] was > 400 nM and ≤ 1000 nM.

These data come from patent US20260098059A1 (ENDOMET BIOSCIENCES, published 2026).
